62 sequences from the supplement of paper PMC9112550, “Optimization of the antimicrobial peptide Bac7 by deep mutational scanning” (BMC Biology, 2022) can be followed below.

This data set deals with Escherichia coli TOP10. The data set can be described thus: shrunken log2 fold change of peptide-encoding DNA abundance (4.5 h post-induction vs induction); higher = less antimicrobial activity (less host growth inhibition). The conditions noted are these: time post-induction: 4.5 h; library: site-saturation at positions 5, 18, 19, 20.
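Also: peptides expressed intracellularly from a pBAD plasmid library in pooled LB shake-flask culture, induced with 0.3% L-arabinose, DNA abundance read by NGS, three biological replicates, DESeq2 with apeglm shrinkage.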

Turning to RRIRCRPPRLPRPRPRPTRCPRP, the “shrunken log2 fold change” value is 0.236.
In the case of RRIRKRPPRLPRPRPRPQSIPRP it was 0.147; in that of RRIRIRPPRLPRPRPRPWDAPRP, -0.00869; in that of RRIRWRPPRLPRPRPRPHISPRP, 0.00485.
As to RRIRWRPPRLPRPRPRPLEGPRP, the “shrunken log2 fold change” value was -0.158.
The value for RRIRGRPPRLPRPRPRPAVGPRP was 1.77; that for RRIRPRPPRLPRPRPRPLYFPRP was -0.602.
The value for RRIRRRPPRLPRPRPRPAPIPRP was 0.92.
As for RRIRIRPPRLPRPRPRPEVAPRP, the “shrunken log2 fold change” value worked out at 0.218.
With RRIRLRPPRLPRPRPRPIQGPRP, the “shrunken log2 fold change” value is -0.226.
Regarding RRIRYRPPRLPRPRPRPPNSPRP, the “shrunken log2 fold change” value is -0.384.
In the case of RRIRMRPPRLPRPRPRPPMMPRP it was 0.609.
The value for RRIRIRPPRLPRPRPRPYPIPRP was -0.139; that for RRIRCRPPRLPRPRPRPFSGPRP was -0.275; that for RRIRYRPPRLPRPRPRPSSIPRP was -0.141.
The value for RRIRKRPPRLPRPRPRPVWAPRP was 0.316.
As to RRIRMRPPRLPRPRPRPVGWPRP, the “shrunken log2 fold change” value was 1.37.
The value for RRIRMRPPRLPRPRPRPKCGPRP was 0.574; that for RRIRQRPPRLPRPRPRPPMFPRP was -0.325.
Turning to RRIRVRPPRLPRPRPRPFCRPRP, the “shrunken log2 fold change” value was -0.215.
For RRIRARPPRLPRPRPRPPFVPRP, the “shrunken log2 fold change” value came to 1.42.
In the case of RRIRLRPPRLPRPRPRPETPPRP, the “shrunken log2 fold change” value turned out to be 0.178.
As to RRIRERPPRLPRPRPRPWKVPRP, the “shrunken log2 fold change” value is -0.0109.
The value for RRIRYRPPRLPRPRPRPPKEPRP was -0.00185.
The value for RRIRHRPPRLPRPRPRPLKKPRP was -0.157.
In the case of RRIRHRPPRLPRPRPRPEKLPRP it was 0.0208; in that of RRIRVRPPRLPRPRPRPPSTPRP, 0.238.
As for RRIRPRPPRLPRPRPRPHLTPRP, the “shrunken log2 fold change” value came out at 0.185.
The value for RRIRKRPPRLPRPRPRPYQKPRP was -0.00762.
In the case of RRIRERPPRLPRPRPRPSFRPRP it was -0.431.
In the case of RRIRGRPPRLPRPRPRPLKMPRP it was 0.27; in that of RRIRERPPRLPRPRPRPGNRPRP, -0.0677; in that of RRIRWRPPRLPRPRPRPWPEPRP, 0.167.
Turning to RRIRPRPPRLPRPRPRPLKYPRP, the “shrunken log2 fold change” value is -0.424.
The value for RRIRLRPPRLPRPRPRPKVMPRP was -0.044.
The value for RRIRQRPPRLPRPRPRPHHNPRP was -0.706; that for RRIRIRPPRLPRPRPRPMIKPRP was -0.761; that for RRIRIRPPRLPRPRPRPPLGPRP was 0.164.
In the case of RRIRCRPPRLPRPRPRPIGTPRP it was -0.279; in that of RRIRFRPPRLPRPRPRPHKGPRP, -0.0598; in that of RRIRPRPPRLPRPRPRPRGQPRP, 0.204.
On to RRIRFRPPRLPRPRPRPVGHPRP, for which the “shrunken log2 fold change” value was -0.0219.
In the case of RRIRTRPPRLPRPRPRPYDRPRP it was -0.221; in that of RRIRGRPPRLPRPRPRPMKEPRP, 0.31.
As for RRIRKRPPRLPRPRPRPYDLPRP, the “shrunken log2 fold change” value turned out to be 0.115.
The value for RRIRYRPPRLPRPRPRPDIDPRP was -0.172.
The value for RRIRHRPPRLPRPRPRPVMLPRP was -0.196; that for RRIRARPPRLPRPRPRPEVHPRP was 3.57.
In the case of RRIRPRPPRLPRPRPRPECNPRP it was -0.0298; in that of RRIRQRPPRLPRPRPRPDAKPRP, 0.199; in that of RRIRRRPPRLPRPRPRPRWHPRP, 0.353.
On to RRIRMRPPRLPRPRPRPVTWPRP, for which the “shrunken log2 fold change” value came to 0.216.
Consider RRIRIRPPRLPRPRPRPEIVPRP, for which the “shrunken log2 fold change” value is -0.255.
The value for RRIRRRPPRLPRPRPRPSQIPRP was 0.092; that for RRIRLRPPRLPRPRPRPPQYPRP was -0.0075; that for RRIRWRPPRLPRPRPRPEVEPRP was -0.016.
In the case of RRIRERPPRLPRPRPRPSSEPRP it was -0.137; in that of RRIRDRPPRLPRPRPRPSFTPRP, -0.404.
The value for RRIRDRPPRLPRPRPRPGIAPRP was 0.37; that for RRIRHRPPRLPRPRPRPWCDPRP was -0.559.
In the case of RRIRCRPPRLPRPRPRPIMSPRP, the “shrunken log2 fold change” value is -0.128.
Turning to RRIRIRPPRLPRPRPRPWVNPRP, the “shrunken log2 fold change” value is -0.722.
